Results published in US10280218B2, “Antibodies binding to BMP4, and uses thereof” (ACADEMISCH MEDISCH CENTRUM, priority 2014, dated 2019).
Entries after “also recorded” stand apart in the source; their conditions may differ. Values belong to the molecule of their own block, whether it stands above or below them.

Assays:
BMP6 [1] = target: T1, BMP6 (Homo sapiens, UniProt P22004); test: Surface plasmon resonance (SPR), BMPs injected over VHH-coated chip; conditions: molecule coupled to chip; unit inferred; — not defined there (Table 1: No binding detected)
T1 sequence (P22004 375-513): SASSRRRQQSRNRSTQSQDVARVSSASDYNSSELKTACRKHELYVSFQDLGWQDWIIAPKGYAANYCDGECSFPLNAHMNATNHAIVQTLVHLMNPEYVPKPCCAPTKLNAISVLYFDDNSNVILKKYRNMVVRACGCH
Protocol: To confirm their BMP specificities and to elucidate their binding affinities, our VHHs were subjected to surface plasmon resonance (SPR) analysis. In a first set of experiments, controls and VHHs (either as monomers or dimers) were coupled to SPR chips and the measurement of BMP affinities was obtained by injecting the different BMPs to the plate.
Serial dilutions (2.0-10 μg/ml) of purified VHHs were spotted on an amine-specific SensEye gold-film gel-type SPRchip (Ssens), using a Continuous Flow Microspotter (Wasatch Microfluidics, Salt Lake City, Utah, United States) as described (Lokate et al., 2007). BMP binding was analyzed on an IBIS MX96 (IBIS Technologies, Enschede, The Netherlands) instrument by performing injections with dilution series (0.05-2.0 μg/ml) of recombinant BMPs on the VHH-coated chip. In each injection, BMPs were injected and incubated for 8 min, followed by 15 min thorough washing with binding buffer (PBS+0.05% Tween20+0.05% sodium azide) to measure dissociation. Epitope binning was done by injecting VHH dilutions (2.0 μg/ml) over the chip, immediately after the dissociation step. Injections with blank binding buffer were used as reference. After each concatenated injection, the chip was regenerated with 10 mM glycine-HCl, pH 2.0. Experimental data were processed with SPRintX software (IBIS Technologies) and kinetic parameters were determined using Scrubber2 software (BioLogic Software, Campbell, ACT, Australia). Binding constants were obtained by global fitting to a one-site binding model.

BMP2 = target: T2, BMP2 (Homo sapiens, UniProt P12643); test: BMP activity luciferase reporter assay (BRE-luciferase, ID1 promoter) in C2C12 cells; type: cell-based, mouse
T2 sequence (P12643 283-396): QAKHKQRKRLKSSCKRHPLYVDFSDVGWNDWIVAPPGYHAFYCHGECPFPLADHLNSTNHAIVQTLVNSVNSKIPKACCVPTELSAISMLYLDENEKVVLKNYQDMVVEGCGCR
Protocol: (§1) One of the most studied BMP target genes is the Inhibitor of Differentiation 1 (ID1). This is an immediate early gene that is activated by binding of the phosphorylated SMADs to its promoter region (López-Rovira et al., 2002). Thus, we employed the BMP-responsive C2C12 cells, which are stably transfected with the BRE-luciferase vector containing the BMP-Responsive-Element (the mouse ID1 promoter) cloned into the pGL3 luciferase vector (Zilberberg 2007). […] C2C12 cells were treated with the different BMPs with or without our VHHs or human Noggin at a concentration of 5 μg/ml. Luciferase activity was measured after 16 hours incubation. Most of the transcriptional data is in concordance with the results obtained with the phosphorylation of SMAD1/5/8.
(§2) C2C12 cells were plated in 96-well plates at 5×10^3 cells/well and cells were allowed to attach overnight. 100 μl of DMEM with 0.1% BSA were added in each well. VHH antibodies and human Fc-Noggin at the indicated concentrations were added at the same time. Wells with unstimulated cells were added as controls. Cells were treated in triplicate with the BMPs at the indicated concentrations for 16 hours. Luciferase activity was measured by adding 100 μl of luciferase substrate solution from the Bright-Glo™ Luciferase Assay System (Promega Benelux, Leiden, The Netherlands). After 3 minutes of incubation, luciferase activity was measured with Synergy HT Multi-Mode Microplate Reader (Biotek, Winooski, Vt., United States). Luciferase values were normalized to background activity (activity of wells with no cells) and represented as ratio to the activity of BMP-stimulated cells.
(§3) To evaluate the extent of this increase in potency, the IC50 of the different VHHs were determined in a dose-dependent inhibition assay in C2C12 cells (FIG. 25). C2C12 cells were plated in 96-well plates at 5×10^3 cells/well and cells were allowed to attach overnight 100 μl of DMEM with 0.1% BSA were added in each well. VHH antibodies were added at the indicated concentrations at the same time as 5 ng/ml BMP4 (FIG. 25A-B, D) or 50 ng/ml of BMP2 (FIG. 25C,D). Luciferase activity was measured after 16 hours. Values are represented as ratio to the activity of BMP-stimulated cells. […] However, its effects were more striking for BMP2 rather than BMP4 inhibition. […] The IC50 values for BMP4 inhibition observed in our VHHs are considerably lower than those observed for anti-BMP4 commercially available from R&D (Katagiri et al 1994) and those described in WO_2008/030611.
(§4) C2C12 cells were cultured in 96-well plates at 5×10^3 cells/well. After overnight attachment cells were stimulated with 10 ng/ml hBMP4 (Cat No. 314-BP-020; R&D Systems), 50 ng/ml hBMP2 (Cat No. 355-BM-010; R&D Systems), 200 ng/ml hBMP5 (Cat No. 615-BMC-020; R&D Systems), 50 ng/ml hBMP6 (Cat No. 506-BP-020; R&D Systems), 200 ng/ml hBMP7 (Cat No. 354-BP-010; R&D Systems), 25 ng/ml hBMP9 (Cat No. 3209-BP-010; R&D Systems), 25 ng/ml hBMP10 (Cat No. 2926-BP-025; R&D Systems), 50 ng/ml hBMP12 (Cat No. 779-G7-010; R&D Systems) and with or without VHH antibodies: C4C4 and C8C8 at 500 ng/ml; natural antagonist: mNoggin (Cat No. 1967-NG-025; R&D Systems), hNoggin (Cat No. 6057-NG; R&D Systems) and mGremlin (cat#956-GR-050; R&D Systems) at 500 ng/ml; chemical antagonist: 0.5 μM LDN-193189 (Cat No. 11802; Cayman Chemical) and 0.2 μM DMH1 (Cat No. 57146; Selleckchem).
(§5) VHH efficacy was evaluated by stimulating cells with 10 ng/ml of hBMP4 and 50 ng/ml of hBMP2, with and without increase concentrations (from 0.1-10 μg/ml) of VHH and anti-BMP4 antibodies: clone 66119, clone 3H2, clone M912262, clone PA354-16.1.1, Clone EPR6211, and anti-BMP4 (ab39973). […] Unstimulated cells were used as controls and wells with no cells used to normalize the background activity. […]

human BMP4 = test: as above; type: cell-based, mouse
Protocol: as §1, §2, §3, §4, §5

BMP6 [2] = target: T1, BMP6; test: as above; type: cell-based, mouse
Protocol: as §1, §2
C2C12 cells were cultured in 96-well plates at 5×10^3 cells/well. […]

Kd (BMP6 [1]): 50 nM
inhibition of BMP-2 signals, comparison of inhibitors (BMP2; 50 ng/ml hBMP2, 16 h, VHH, Noggin, Gremlin 500 ng/ml, LDN 0.5 μM, DMH1 0.2 μM): greatly inhibit
IC50 (BMP2; 50 ng/ml hBMP2, 16 hours, read-out: IC50, neutralization of BMP2): ~1.6 nM
IC50 (human BMP4; 10 ng/ml hBMP4, 16 hours, read-out: IC50, neutralization of BMP4): ~0.54 nM
inhibition of BMP-6 signals, comparison of inhibitors (BMP6 [2]; 50 ng/ml hBMP6, 16 h, 500 ng/ml): inhibited
B1: hNoggin (protein)
chain: QHYLHIRPAPSDNLPLVDLIEHPDPIFDPKEKDLNETLLRSLLGGHYDPGFMATSPPEDRPGGGGGAAGGAEDLAELDQLLRQRPSGAMPSEIKGLEFSEGLAQGKKQRLSKKLRRKLQMWLWSQTFCPVLYAWNDLGSRFWPRYVKVGSCFSKRSCSVPEGMVCKPSKSVHLTVLRWRCQRRGGQRCGWIPIQYPIISECKCSC
inhibition of BMP4-derived signals, comparison of inhibitors (human BMP4; 10 ng/ml hBMP4, 16 h, VHH, Noggin, Gremlin 500 ng/ml, LDN 0.5 μM, DMH1 0.2 μM): greatly inhibit

Kd (BMP6 [1]): 50 nM
inhibition of BMP2-mediated transcriptional activation by dimers (BMP2; BMP2 50 ng/ml, 16 hours, increasing concentrations up to 5 μg/ml): inhibit; also recorded: similar
inhibition of BMP6-mediated transcriptional activation by dimers (BMP6 [2]; BMP6 50 ng/ml, 16 hours, increasing concentrations): unable to impair
B2: C8E7: E7 linked to C8, hetero-dimer VHH bihead (protein)
chain: EVQLVESGGGLVQAGGSLRLSCAASGRTFRINDMGWYRQAPGKSRDMVARITSGGNTNYADSVKGRFTISRDNAKNTVYLQMNSLKPEDTAVYYCNADGLRFDSTRYRPFDSWGQGTQVTVSSGGGGSGGGGSEVQLVESGGGLVQAGGSLRLSCAASGSIRGFVAMAWYRQAPGKQREWVATVTNGGTLYGDSVKGRFTGSRDNAKNTVYLQMNSLKPEDTAVYYCALRQIGASGYDYWGQGTQVTVSS
inhibition of BMP4-mediated transcriptional activation by dimers (human BMP4; BMP4 5 ng/ml, 16 hours, increasing concentrations): inhibit; also recorded: similar
